pEC50, pIC50, pKd: −log10 of the molar value. Read-outs that look alike come from different tables or passages of the source.
Tests used:
[1] = biological target: FLAG-β2 DAT8 LKI (rat (Rattus norvegicus) | human); assay: supported cell membrane sheets (SCMS), confocal microscopy, dissociation time course; PICK1 dissociation from sheets expressing LKV (two-state fit) or LKI (one-state fit)
[2] = biological target: FLAG-β2 DAT8 LKI (rat (Rattus norvegicus) | human); assay: supported cell membrane sheets (SCMS), confocal microscopy, association time course; PICK1 binding as a function of incubation time; PICK1 100 nM for LKV and LKI
[3] = biological target: TAC-YFP-DAT C24 (C-terminus of the dopamine transporter on TAC-YFP) (not stated | not stated (human DAT is named for the β2-DAT8 constructs)); assay: supported cell membrane sheets (SCMS), confocal microscopy, saturation binding; labelled PICK1 in sheet buffer (120 mM KCl, 2 mM MgCl2, 0.1 mM CaCl2, 10 mM HEPES, 30 mM glucose pH 7.35) overlaid for 2 h on ice on sheets from transfected HEK293 GripTite cells; PICK1 signal divided by receptor signal; apparent affinity (Kd*), headed EC50 in the tables
[4] = biological target: FLAG-β2 DAT8 LKA (rat (Rattus norvegicus) | human); assay: as above
[5] = biological target: TAC-YFP-GluA2 (24 C-terminal residues of GluA2 on the IL-2 receptor α-subunit fused to YFP) (not stated | rat (Rattus norvegicus)); assay: as above
[6] = biological target: FLAG-β2 DAT8 LKI (rat (Rattus norvegicus) | human); assay: as above
[7] = biological target: TAC-YFP-DAT C24 (C-terminus of the dopamine transporter on TAC-YFP) (not stated | not stated (human DAT is named for the β2-DAT8 constructs)); assay: supported cell membrane sheets (SCMS), confocal microscopy, association time course; PICK1 binding as a function of incubation time; PICK1 100 nM for LKV and LKI
[8] = biological target: FLAG-β2 DAT8 LKI (rat (Rattus norvegicus) | human); assay: as above; remark: listed apart in the source
[9] = biological target: FLAG-β2 DAT8 LKI (rat (Rattus norvegicus) | human); assay: supported cell membrane sheets (SCMS), confocal microscopy, saturation binding of exchanged dimers; monomers purified in 0.1% TX-100, mixed and diluted at least 100-times to form WT/WT or WT/A87L dimers (A87L in 4 times excess); sheets expressing LKV or LKI; read in the WT and the A87L channel; apparent (Kd*)
[10] = biological target: Oregon Green-labeled DAT C13 peptide (not stated (human DAT is named for the β2-DAT8 constructs)); assay: fluorescence polarisation; saturation: PICK1 diluted to various concentrations, 20 nM OrG DAT C13; 50 mM Tris pH 7.4, 125 mM NaCl, 1 mM DTT, 0.01% Triton X-100; 30 min on ice
[11] = biological target: TAC-YFP-DAT C24 (C-terminus of the dopamine transporter on TAC-YFP) (not stated | not stated (human DAT is named for the β2-DAT8 constructs)); assay: supported cell membrane sheets (SCMS), confocal microscopy, competition binding; 100 nM labelled SNAP-PICK1 premixed with increasing unlabelled PICK1 WT, 120 min, on sheets expressing TAC-YFP-DAT; half maximal binding reported as Ki*

## SNAP-PICK1 WT (PICK1 with an N-terminal SNAP-tag, fluorescently labelled) (from UniProt Q9EP80 1-416) (natural protein)
[1]
  dissociation half-life: 7.18 h
[2]
  time to half maximum binding: 11 min
[3]
  pEC50: 7.33
[4]
  pEC50: 7.23
[5]
  pEC50: 7.14
[6]
  pEC50: 7.54
  Kd* (apparent affinity): 39 nM
[7]
  time to half maximum binding: 19 min
[8]
  time to half maximum binding: 14 min

## PICK1 WT/A87L heterodimer (from UniProt Q9EP80 1-416; Q9EP80 1-416) (complex)
[9]
  pEC50: 6.91

## PICK1 WT without SNAP-tag (from UniProt Q9EP80 1-416) (natural protein)
[10]
  pKd: 5.05
[11]
  pIC50: 7.54

Source: paper PMC6345565
